B1: CL-32416-IgG (antibody, V domains shown)
VH: EVQLVQSGSELKKPGASVKVSCKASGYTFTDYGMYWVRQAPGQGLEWMGWIDTETGEPTYADDFKGRFVFSLDTSVSTAYLQISSLKAEDTAVYYCARTNYYYRSYMFYFDYWGQGTMVTVSS
VL: EIVLTQSPATLSLSPGERATLSCRASESVSTHMHWYQQKPGQAPRLLIYGASNLESGVPARFSGSGSGTDFTLTISSLEPEDFAVYFCQQSWNDPFTFGQGTKLEIK
notes: also called h4G8 CL-32416
B2: CL-34455-IgG (antibody, V domains shown)
VH: B1 VH with D31N, D62Q, D63G, K65T, R104P
VL: B1 VL with E27Q, S30G, N53K, F87Y, N93Y, F96L
notes: also called h4G8 CL-34455
B3: CL-34522-IgG (antibody, V domains shown)
VH: B1 VH with T30E, D31N, R104S
VL: B1 VL with E27Q, S30G, N53K, F87Y, N93Y, F96L
notes: also called h4G8 CL-34522
B4: CL-34475-IgG (antibody, V domains shown)
VH: B1 VH with R104S
VL: B1 VL with E27Q, V58I, F87Y, N93Y, F96L
notes: also called h4G8 CL-34475
B5: CL-34449-IgG (antibody, V domains shown)
VH: B1 VH
VL: B1 VL with E27Q, S30G, N53H, V58I, F87Y, S91T, N93Y, F96L
notes: also called h4G8 CL-34449
B6: CL-34633-IgG (antibody, V domains shown)
VH: B1 VH with T30S
VL: B1 VL with E27Q, N93Y, F96L
notes: also called h4G8 CL-34633
B7: CL-34565-IgG (antibody, V domains shown)
VH: B1 VH with E57D, S105N
VL: B1 VL with S22F, E27Q, T31N, N53I, F87Y, N93Y, F96I
notes: also called h4G8 CL-34565
B8: CL-34540-IgG (antibody, V domains shown)
VH: B1 VH with E57Q
VL: B1 VL with S30G, T31K, G50A, F87Y, N93Y, F96L
notes: also called h4G8 CL-34540
B9: CL-34469-IgG (antibody, V domains shown)
VH: B1 VH with D31N
VL: B1 VL with E27Q, F87Y, N93Y, F96L
notes: also called h4G8 CL-34469
B10: CL-34570-IgG (antibody, V domains shown)
VH: B1 VH with T30D, E57T, R104S
VL: B1 VL with E27Q, V58I, F87Y, N93Y, F96L
notes: also called h4G8 CL-34570
B11: CL-34538-IgG (antibody, V domains shown)
VH: B1 VH with R104P
VL: B1 VL with E27Q, S91T, N93Y, F96L
notes: also called h4G8 CL-34538
B12: 4G8.3-SL-9E8.4E anti-VEGF-A/anti-PDGF-BB DVD-Ig (PR-1575834) (bispecific antibody, human IgG1, kappa, L234A L235A)
heavy: EVQLVQSGSELKKPGASVKVSCKASGYTFTNYGMYWVRQAPGQGLEWMGWINTETGKPTYADDFKGRFVFSLDTSVSTAYLQISSLKAEDTAVYYCARTNYYYRSYIFYFDYWGQGTMVTVSSASTKGPEVTLRESGPALVKPTQTLTLTCTFSGFSLSTYGMGVGWIRQPPGKALEWLANIWWDDDKYYNPSLKNRLTISKDTSKNQVVLTMTNMDPVDTATYYCARIESIGTTYSFDYWGQGTMVTVSSASTKGPSVFPLAPSSKSTSGGTAALGCLVKDYFPEPVTVSWNSGALTSGVHTFPAVLQSSGLYSLSSVVTVPSSSLGTQTYICNVNHKPSNTKVDKKVEPKSCDKTHTCPPCPAPEAAGGPSVFLFPPKPKDTLMISRTPEVTCVVVDVSHEDPEVKFNWYVDGVEVHNAKTKPREEQYNSTYRVVSVLTVLHQDWLNGKEYKCKVSNKALPAPIEKTISKAKGQPREPQVYTLPPSREEMTKNQVSLTCLVKGFYPSDIAVEWESNGQPENNYKTTPPVLDSDGSFFLYSKLTVDKSRWQQGNVFSCSVMHEALHNAYTQKSLSLSPGK
light: DTVLTQSPATLSLSPGERATLSCRASESVSTHMHWYQQKPGQAPRLLIYGASNLESGVPARFSGSGSGTDFTLTISSLEPEDFAVYFCQQSWNDPFTFGQGTKLEIKRTVAAPSVFIFPPEFVLTQSPGTLSLSPGERATLSCERSSGDIGESYVSWYQQKPGQAPRLVIYADDQRPSGIPDRFSGSGSGTDFTLTISRLEPEDFAVYYCQSYDINIDIVFGGGTKVEIKRTVAAPSVFIFPPSDEQLKSGTASVVCLLNNFYPREAKVQWKVDNALQSGNSQESVTEQDSKDSTYSLSSTLTLSKADYEKHKVYACEVTHQGLSSPVTKSFNRGEC
B13: BDI-5G2-F9 (antibody, V domains shown)
VH: QVTLKESGPGILQPSQTLSLTCTFSGFSLSTFGMGVGWIRQPSGKGLEWLANIWWDDDKYYNPSLKNRLTISKDTSNSQAFLEITNVDTADTATYYCARISTGISSYYVMDAWGQGASVTVSS
VL: QFTLTQPKSVSGSLRSTITIPCERSSGDIGDTYVSWYQQHLGRPPINVIYGNDQRPSEVSDRFSGSIDSSSNSASLTITNLQMDDEADYFCQSYDSDIDIVFGGGTKLTVL
B14: BDI-5H1-F6 (antibody, V domains shown)
VH: B13 VH
VL: B13 VL
B15: BEW-164-C4 (antibody, IgG2b, V domains shown)
VH: QIQLVQSGPELKKPGESVKISCKASGYSFTNYGMYWVKQAPGQGLQYMGWIDTETGKPTYTDDFKGRFVFFLETSASTAYLQINNLKNEDMATYFCARWSGDTAGIRGPWFAYWGQGTLVTVSS
VL: DIRMTQSPASLSASLGETVNIECLASEDIYSDLAWYQQKPGKSPQLLIYNANDLQKGVPSRFSGSGSGTQYSLKINSLQSEDVATYFCQQYNYYPGTFGAGTKLELK
notes: Rat hybridoma antibody, isotype IgG2b/kappa; also called BEW-1B4-C4
B16: BEW-9E10-E7 (antibody, IgG2a, V domains shown)
VH: B15 VH with V5L, S28T, K57R, T61A, A104T
VL: B15 VL with K42R, D53G, K56N, S63G, Y94F
notes: Rat hybridoma antibody, isotype IgG2a/kappa

Substitutions are numbered along the chain they refer to. A value given as a limit tells only on which side of the number the result lay.

T2 sequence (P01127 82-190 limits assumed): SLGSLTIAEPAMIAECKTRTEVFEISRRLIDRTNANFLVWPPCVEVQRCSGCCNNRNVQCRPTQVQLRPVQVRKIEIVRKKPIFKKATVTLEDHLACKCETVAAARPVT
recombinant murine PDGF-BB, sequence (P31240 82-190 limits assumed): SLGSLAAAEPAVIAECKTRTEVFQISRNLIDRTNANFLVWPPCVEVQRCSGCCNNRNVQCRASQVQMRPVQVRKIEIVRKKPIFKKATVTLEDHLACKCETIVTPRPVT

One assay deals with T1, recombinant human VEGF165 (human, UniProt P15692 207-395). The assay can be described thus: cell-based or functional assay.
T1 sequence (P15692 other isoform, or with tags, fused parts or gaps limits assumed): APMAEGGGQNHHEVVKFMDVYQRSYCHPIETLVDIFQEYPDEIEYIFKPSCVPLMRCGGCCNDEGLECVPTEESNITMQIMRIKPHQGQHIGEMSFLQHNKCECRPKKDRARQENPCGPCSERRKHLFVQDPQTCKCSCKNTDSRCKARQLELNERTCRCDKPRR
On to B1, for which the “hVEGF165 IC50 (nM), Potency HMVEC-d (hVEGF165-induced proliferation)” value (from here on “hVEGF165 IC50 (nM), Potency HMVEC-d”) was 0.117 nM.

On to B2, for which the “hVEGF165 IC50 (nM), Potency HMVEC-d” value was determined as 0.105 nM.

Regarding B3, the “hVEGF165 IC50 (nM), Potency HMVEC-d” value came out at 0.116 nM.

Take B4: the “hVEGF165 IC50 (nM), Potency HMVEC-d” value is 0.106 nM.

B5: the “hVEGF165 IC50 (nM), Potency HMVEC-d” value was 0.077 nM.

Take B6: the “hVEGF165 IC50 (nM), Potency HMVEC-d” value worked out at 0.138 nM.

For the molecule B7, the “hVEGF165 IC50 (nM), Potency HMVEC-d” value was determined as 0.126 nM.

Consider B8, for which the “hVEGF165 IC50 (nM), Potency HMVEC-d” value was 0.139 nM.

With B9, the “hVEGF165 IC50 (nM), Potency HMVEC-d” value amounted to 0.094 nM.

Take B10: the “hVEGF165 IC50 (nM), Potency HMVEC-d” value was determined as 0.11 nM.

As to B11, the “hVEGF165 IC50 (nM), Potency HMVEC-d” value was found to be 0.127 nM.

Another assay has as its target recombinant murine PDGF-BB (mouse, UniProt P31240 82-190). The assay can be described thus: cell-based or functional assay.
For B12, the “Potency IC50 (nM) mPDGF-BB (NIH-3T3 proliferation)” value is 0.772 nM.

A further assay concerns the target T2, Human PDGF-BB (human, UniProt P01127 82-190).
T2 construct: Recombinant human PDGF-BB, a dimer of two B chains; also called huPDGF-BB; hPDGF-BB
The assay can be described thus: Biacore SPR (Example 1.1). As to the method: (§1) Unreacted moieties on the biosensor surface were blocked with ethanolamine. For kinetic analysis, rate equations derived from the 1:1 Langmuir binding model were fitted simultaneously to multiple antigen injections (using global fit analysis) with the use of Scrubber 2 (BioLogic Software), Biacore Biaevaluation 4.0.1 software or Biacore T100 Evaluation software. Purified antibodies or DVD-Ig molecules were diluted in running buffer for capture across goat anti-human Fc reaction surfaces. Antibodies or DVD-Ig molecules to be captured as a ligand (1 μg/ml) were injected over reaction matrices at a flow rate of 10 μl/minute. During the assay, all measurements were referenced against the capture surface alone (i.e., with no captured antibody or DVD-Ig molecule). […] The equilibrium dissociation constant KD (M) of the reaction between antibodies and the target antigen was then calculated from the kinetic rate constants by the following formula: KD=Koff/Kₒₙ. Binding was recorded as a function of time and kinetic rate constants were calculated. In this assay, on-rates as fast as 10⁶M⁻¹s⁻¹ and off-rates as slow as 10⁻⁶ s⁻¹ could be measured.
The Kd is the constant that tells how readily two partners part at equilibrium. In general, kon refers to a measure of how fast the partners come together. For B13, the Kd was at most 0.0001 nM and the kon is at least 1e+07 M⁻¹ s⁻¹.

On to B14, for which the Kd was at most 0.0001 nM and the kon was at least 1e+07 M⁻¹ s⁻¹.

The target of a further assay is T3, Human VEGF-A 165 (human, UniProt P15692 207-395).
T3 construct: Recombinant; also called huVEGF-A165; hVEGF165
T3 sequence (P15692 other isoform, or with tags, fused parts or gaps limits assumed): as above
The assay is described as follows: receptor competition ELISA, hVEGF165 binding to coated hVEGF-R2-Fc. As to the method:
(§2) To identify molecules that could block the binding of hVEGF₁₆₅ to the hVEGF-R2 (KDR/Flk-1) receptor, a competition ELISA was performed. […] Plates were then washed four times with wash buffer (TBS, 0.05% Tween-20) and blocked with Superblock blocking buffer (Thermo Scientific, cat#37535). […] The pre-incubated sample/hVEGF₁₆₅ complex was added to the coated plate at 50 μL in duplicate and incubated for 30 minutes at 25° C. with shaking. Following incubation, plates were washed four times with wash buffer. Streptavidin-polyHRP-40 (Fitzgerald cal#65r-s104phrp) was diluted in assay diluent (10% Superblock containing 0.05% surfactamps) and added to plates (50 μL) for 45 minutes at 25° C. with shaking. Plates were washed four times with wash buffer and developed with the addition of Enhanced K-blue TMB substrate (Neogen cat#308177). The reaction was stopped with 2N sulfuric acid (VWR, cat# BDH3500-1) and the absorbance was read at 450 nm-570 nm. A decrease in observed optical density indicates the test molecule is blocking the hVEGF₁₆₅ binding to the hVEGF-R2-Fc. Data was analyzed using Softmax Pro 4.8 software and IC₅₀ values calculated using a sigmoidal dose response (variable slope) fit in GraphPad Prism 5.
Anti-VEGF-A antibodies derived from rat hybridomas were characterized for binding, function and cross-reactivity in a panel of assays. Supernatants were tested for the ability to bind hVEGF₁₆₅ (Example 1.3) and block binding of hVEGF₁₆₅ to hVEGFR2 in a competition ELISA format (Example 1.4).
Broadly, the IC50 is the midpoint of a concentration-inhibition curve. In turn, B15 yielded an IC50 of 0.18 nM.

Consider B16, for which the concentration for half-maximal inhibition (IC50) came out at 0.274 nM.

A further assay addresses T1, recombinant human VEGF165. The assay can be described thus: SPR (Biacore), antibody captured by anti-human Fc, hVEGF165 in solution. As to the method: as §1
(§3) Affinity matured humanized anti-VEGF antibodies were characterized for hVEGF₁₆₅ binding and potency. Binding affinity of these molecules to hVEGF₁₆₅ was determined by Biacore analysis (Example 1.1). Potency was evaluated in both cell-based and ELISA formats. The ability to block binding of hVEGF₁₆₅ to hVEGFR2 was evaluated in a competition ELISA (Example 1.4) Inhibition of hVEGF₁₆₅-induced cell proliferation was assessed using HMVEC-d cells (Example 1.10).
(In SPR one partner is held on a chip, and binding of the other changes the refractive index at the surface.)
In the case of B1, the Kd worked out at 0.00054 nM and the kon came to 2e+07 M⁻¹ s⁻¹.

For B2, the Kd stood at 0.00046 nM and the kon stood at 2.2e+07 M⁻¹ s⁻¹.

B3: the Kd turned out to be 0.00053 nM and the kon came to 2e+07 M⁻¹ s⁻¹.

For the molecule B4, the Kd came to 0.00052 nM and the kon amounted to 2.7e+07 M⁻¹ s⁻¹.

As for B5, the Kd turned out to be 0.00085 nM and the kon is 1.1e+07 M⁻¹ s⁻¹.

Regarding B6, the dissociation constant (Kd) turned out to be 0.00024 nM and the kon came out at 1.7e+07 M⁻¹ s⁻¹.

Take B7: the Kd worked out at 0.0004 nM and the kon was found to be 2e+07 M⁻¹ s⁻¹.

B8: the Kd stood at 0.00085 nM and the kon is 8.4e+06 M⁻¹ s⁻¹.

Regarding B9, the Kd worked out at 0.00062 nM and the kon stood at 1.5e+07 M⁻¹ s⁻¹.

Take B10: the Kd stood at 0.00029 nM and the kon worked out at 1.9e+07 M⁻¹ s⁻¹.

Consider B11, for which the equilibrium dissociation constant (Kd) stood at 0.00024 nM and the association rate constant (kon) worked out at 3.3e+07 M⁻¹ s⁻¹.

The target in a further assay is T1, recombinant human VEGF165. The assay can be described thus: competition ELISA: antibody titrated against biotinylated hVEGF165, binding to plate-coated hVEGF-R2-Fc. As to the method:
as §2, §3
Background: In an ELISA, binding on a coated surface is turned into a signal by an enzyme label.
B1: the half-maximal inhibitory concentration (IC50) is below 0.1 nM.

With B2, the IC50 is below 0.1 nM.

Take B3: the 50% inhibitory concentration (IC50) is below 0.1 nM.

As to B4, the IC50 was below 0.1 nM.

With B5, the half-inhibitory concentration (IC50) is below 0.1 nM.

B6: the IC50 was below 0.1 nM.

As for B7, the IC50 is below 0.1 nM.

As to B8, the IC50 was below 0.1 nM.

For the molecule B9, the IC50 was below 0.1 nM.

Consider B10, for which the IC50 was below 0.1 nM.

As to B11, the IC50 was below 0.1 nM.

(Values after patent US20170015742A1 (published 2017).)
